From article PMC5977221 come the findings set out here.

pKd: −log10 of the molar value. Values joined by “and” are separate entries in the source; they are usually repeats but may differ in a detail not shown here. Identical values can stand only once.

Data set [1] relates to BAA2326 repressor (Shiga toxin-encoding bacteriophage BAA2326 (from STEC)). The experiment in a line: EMSA. To be noted: for binding signal: scale: fold Kd relative to separate OR1.
The test system is the same in data set [2]. Briefly: DNaseI footprinting.

“GCGAATTCACTAAAGCACTTGCAATATCACCTTTGGTTATATGTAATGCCATAATAACTAAGAAGCTTCC (double strand) [BAA2326 OR3 oligonucleotide]” had a binding signal in data set [1] of 2.5. The same measure, in the same setting: for “GCGAATTCACTAAAGCACTTGCAATATGTAATGAAATATCTGCGGTGTTGACATTCCATAATAACTAAGAAGCTTCC (double strand) [BAA2326 OR2 oligonucleotide]” the value was 83.3. In data set [1], “GCGAATTCACTAAAGCACTTGCATTTAATAACTGTGCGTAATGATATGCCATAATAACTAAGAAGCTTCC (double strand) [BAA2326 OR1 oligonucleotide]” showed a pKd of 9.38. For intact BAA2326 OR, wild type, the pKd in data set [2] is 7.54 and 7.36 and 7.23.

The pKd is the Kd on a negative log10 scale, so that one unit is a factor of ten.
